US20240424125A1 (Zymeworks, published 2024)
Substitutions are numbered along the chain they refer to. Each block holds one binder with its values, some of them ahead of it.

Assays:
[1] = biological target: T1, recombinant His-tagged human FRα (ACROBiosystems) (human, UniProt P15328 25-233); experiment: BLI (Octet RED96); end of the range tied to v35305 by Table 20.1
T1 construct: also called hFRα; hFRα antigen; not shown: His tag
Protocol: (§1) The assay buffer used was KB buffer (kinetics buffer, composed of PBS pH 7.4, 0.1% BSA, 0.02% Tween 20, 0.05% sodium azide) supplemented with 0.06% Tween 20 and in some instances also with 1% BSA. The experiment was conducted at 30° C. with a shake speed of 1000 rpm.
(§2) Data analysis was performed using Data Analysis Software 9.0 (ForteBio, Fremont CA). The reference-subtracted binding curves were globally fitted to the 1:1 interaction model to generate the binding kinetic parameters kₒₙ, koff, and the dissociation constant KD.

[2] = biological target: T1, recombinant His-tagged human FRα …; experiment: BLI (Octet RED96) as in Example 8: antibody captured, His-tagged hFRα as analyte, mean of n=2
Protocol: as §1, §2

[3] = biological target: T1, recombinant His-tagged human FRα …; experiment: BLI (Octet RED96); end of the range tied to v35348 by Table 20.1
Protocol: as §1, §2

[4] = biological target: T1, recombinant His-tagged human FRα …; experiment: BLI (Octet RED96): antibody on anti-human IgG Fc capture biosensor, His-tagged hFRα as analyte, 1:1 global fit, mean of n=2
Protocol: as §1, §2

[5] = biological target: T1, recombinant His-tagged human FRα …; experiment: BLI (Octet RED96); end of the range tied to v30394 by Table 8.1
Protocol: as §1, §2

[6] = biological target: T1, recombinant His-tagged human FRα …; experiment: BLI (Octet RED96); end of the range tied to v31426 by Table 8.1
Protocol: as §1, §2

FCGR2A = biological target: T2, FCGR2A (human, UniProt P12318); experiment: Retrogenix cell microarray, fixed cell confirmation screen, HEK293 cells overexpressing the protein, v36675 at 20 µg/mL, detection with AF647 anti-hIgG H+L; the text calls FcgR signals Fc-domain mediated
T2 construct: overexpressed on reverse-transfected HEK293 cells, fixed; One of the FcgR receptors that the text names only as a group
T2 sequence (receptor chain, looked up): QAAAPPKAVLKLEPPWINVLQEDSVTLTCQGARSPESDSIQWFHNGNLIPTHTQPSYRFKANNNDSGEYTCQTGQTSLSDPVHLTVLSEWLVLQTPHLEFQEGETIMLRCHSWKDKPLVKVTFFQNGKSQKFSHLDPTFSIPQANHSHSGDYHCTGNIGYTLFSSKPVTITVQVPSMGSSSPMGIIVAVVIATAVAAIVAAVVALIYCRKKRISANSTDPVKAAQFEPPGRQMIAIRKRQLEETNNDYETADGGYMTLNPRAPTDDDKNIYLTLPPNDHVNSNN
Protocol: (§3) Fluorescent images were analysed and quantitated (for transfection) using ImageQuant™ software (Version 8.2; GE Healthcare, Chicago, IL). A protein hit was defined as a duplicate spot showing an increased signal compared to background levels and was identified by visual inspection using the images gridded on the ImageQuant™ software. Hits were classified as strong, medium, weak or very weak by visual inspection by two experienced scientists based on the intensity of the duplicate spots.

FCGR1A = biological target: T3, FCGR1A (human, UniProt P12314); experiment: as above
T3 construct: overexpressed on reverse-transfected HEK293 cells, fixed; One of the FcgR receptors that the text names only as a group
T3 sequence (P12314 16-374 limits assumed): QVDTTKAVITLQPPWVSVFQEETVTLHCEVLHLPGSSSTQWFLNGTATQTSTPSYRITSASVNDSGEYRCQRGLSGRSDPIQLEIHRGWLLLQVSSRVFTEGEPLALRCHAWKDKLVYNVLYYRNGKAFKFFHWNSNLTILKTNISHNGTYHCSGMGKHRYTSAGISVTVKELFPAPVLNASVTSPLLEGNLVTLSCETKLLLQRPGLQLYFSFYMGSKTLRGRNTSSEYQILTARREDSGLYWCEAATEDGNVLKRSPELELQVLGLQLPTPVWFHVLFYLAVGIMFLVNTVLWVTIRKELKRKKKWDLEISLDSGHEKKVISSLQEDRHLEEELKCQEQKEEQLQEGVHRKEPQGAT
Protocol: as §3

T1 sequence (P15328 25-233 limits assumed): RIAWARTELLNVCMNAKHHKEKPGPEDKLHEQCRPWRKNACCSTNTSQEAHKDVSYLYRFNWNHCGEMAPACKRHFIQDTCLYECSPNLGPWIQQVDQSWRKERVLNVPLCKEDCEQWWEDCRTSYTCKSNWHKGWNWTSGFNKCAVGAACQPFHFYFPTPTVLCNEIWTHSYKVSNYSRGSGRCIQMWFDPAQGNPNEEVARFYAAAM

fold improvement of affinity over the parental humanized antibody v30384 [1]: 12 fold | Kd [2]: 10.8 nM
B1: v35305 (antibody, human IgG1, kappa, V domains shown)
VH: EVQLLESGGGLVQPGGSLRLSCAVSGFSLSLYGVSWVRQAPGKGLEWIGAVNSGGSAYYADSVKGRSTISRDNSKNTVYLQMNSLRAEDTAVYYCARSGSGYPMDYLAIWGQGTLVTVSS
VL: DYQMTQSPSSVSASVGDRVTITCRASQSIWYWLAWYQQKPGKAPKLLIYEASTLASGVPSRFSGSGSGTDFTLTISSVQPEDAATYYCQQGYGRSNVDNIFGGGTKVEVKR

fold improvement of affinity over the parental humanized antibody v30384 [3]: 58 fold | Kd [2]: 2.2 nM
B2: v35348 (antibody, human IgG1, kappa, V domains shown)
VH: B1 VH with V63F, L107H, A108P
VL: B1 VL with W30G, Y31D, S95W, N96H, V97I, D98L

Kd [4]: 63 nM | fold reduced affinity compared to the parental chimera antibody v23924 [5]: 2 fold
B3: v30394 (antibody, human IgG1, kappa)
heavy 1: EVQLLESGGGLVQPGGSLRLSCAVSGFSLSSYGVSWVRQAPGKGLEWIGAVNSGGSAYYADWAKGRSTISRDNSKNTVYLQMNSLRAEDTAVYYCARSGSGYPMDYLAIWGQGTLVTVSSASTKGPSVFPLAPSSKSTSGGTAALGCLVKDYFPEPVTVSWNSGALTSGVHTFPAVLQSSGLYSLSSVVTVPSSSLGTQTYICNVNHKPSNTKVDKKVEPKSCDKTHTCPPCPAPELLGGPSVFLFPPKPKDTLMISRTPEVTCVVVDVSHEDPEVKFNWYVDGVEVHNAKTKPREEQYNSTYRVVSVLTVLHQDWLNGKEYKCKVSNKALPAPIEKTISKAKGQPREPQVYVYPPSRDELTKNQVSLTCLVKGFYPSDIAVEWESNGQPENNYKTTPPVLDSDGSFALVSKLTVDKSRWQQGNVFSCSVMHEALHNHYTQKSLSLSPG
heavy 2: not shown
light: DYQMTQSPSSVSASVGDRVTITCRASQSIGDWLAWYQQKPGKAPKLLIYEASTLASGVPSRFSGSGSGTDFTLTISSVQPEDAATYYCQQGYGRSNVDNIFGGGTKVEVKRTVAAPSVFIFPPSDEQLKSGTASVVCLLNNFYPREAKVQWKVDNALQSGNSQESVTEQDSKDSTYSLSSTLTLSKADYEKHKVYACEVTHQGLSSPVTKSFNRGEC
notes: Humanized IgG1/kappa, HetFc; also called 4H4L

fold reduced affinity compared to the parental chimera antibody v23924 [6]: 8 fold | Kd [4]: 210 nM
B4: v31426 (antibody, human IgG1, kappa)
heavy: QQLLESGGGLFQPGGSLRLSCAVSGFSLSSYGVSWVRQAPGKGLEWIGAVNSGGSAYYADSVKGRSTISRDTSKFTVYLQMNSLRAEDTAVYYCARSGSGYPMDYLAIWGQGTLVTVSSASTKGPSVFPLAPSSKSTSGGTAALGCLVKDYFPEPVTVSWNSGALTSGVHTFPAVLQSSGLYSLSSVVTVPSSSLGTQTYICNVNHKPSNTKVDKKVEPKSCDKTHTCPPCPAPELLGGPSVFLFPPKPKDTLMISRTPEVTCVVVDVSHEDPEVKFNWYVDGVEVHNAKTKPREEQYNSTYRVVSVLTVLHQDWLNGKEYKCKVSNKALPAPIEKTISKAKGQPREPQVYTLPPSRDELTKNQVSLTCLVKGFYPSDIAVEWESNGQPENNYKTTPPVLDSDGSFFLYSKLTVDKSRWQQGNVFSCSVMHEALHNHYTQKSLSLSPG
light: B3 light
notes: Humanized IgG1/kappa, HomoFc; also called 3gH4L

binding result (FCGR2A): binds | binding result (FCGR1A): binds
B5: v36675 (antibody, human IgG1, kappa)
heavy: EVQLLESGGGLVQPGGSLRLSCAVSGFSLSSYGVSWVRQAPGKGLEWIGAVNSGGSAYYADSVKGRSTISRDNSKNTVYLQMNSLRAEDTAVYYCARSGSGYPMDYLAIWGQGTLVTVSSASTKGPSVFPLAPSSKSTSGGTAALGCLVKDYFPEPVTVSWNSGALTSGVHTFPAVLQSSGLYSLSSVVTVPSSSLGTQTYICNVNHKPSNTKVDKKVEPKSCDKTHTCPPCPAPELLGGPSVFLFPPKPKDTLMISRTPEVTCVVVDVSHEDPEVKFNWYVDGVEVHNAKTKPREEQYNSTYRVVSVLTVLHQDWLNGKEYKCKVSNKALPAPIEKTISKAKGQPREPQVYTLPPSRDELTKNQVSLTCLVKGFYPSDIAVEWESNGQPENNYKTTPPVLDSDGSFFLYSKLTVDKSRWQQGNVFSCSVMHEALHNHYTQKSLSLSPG
light: B3 light
notes: Same paratopes as v30384 but HomoFc instead of HetFc; also called humanized variant v36675
